# Assay results reported in patent US20250277031A1 (BEIJING HANMI PHARMACEUTICAL, published 2025).
# B1: chimeric anti-human CD47 monoclonal antibody mAb-18-5 (antibody, human IgG1, kappa)
# heavy: not shown
# light: DIVMTQSQKFMSTSVGDRVSITCKASQNVRTSIAWYQQKSGQSPKTLIYLASNRHTGVPDRFTGSGSGTDFTLTISNVQSEDLADYFCLQHWNYPFTFGSGTKLEIKRTVAAPSVFIFPPSDEQLKSGTASVVCLLNNFYPREAKVQWKVDNALQSGNSQESVTEQDSKDSTYSLSSTLTLSKADYEKHKVYACEVTHQGLSSPVTKSFNRGEC
# Biological target: T1, recombinant human CD47 (human, UniProt Q08722 19-139)
# T1 construct: also called antigen CD47
# T1 sequence (Q08722 19-139 limits assumed): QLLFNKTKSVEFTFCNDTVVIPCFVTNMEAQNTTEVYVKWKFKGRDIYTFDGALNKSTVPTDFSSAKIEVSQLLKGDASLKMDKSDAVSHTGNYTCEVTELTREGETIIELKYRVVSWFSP
# Test: SPR, Biacore X100, antibody captured on Protein A chip, CD47 as analyte
# Excerpt: Biacore X100 instrument (purchased from GE) was used to detect the kinetic constant of the chimeric anti-human CD47 monoclonal antibodies binding to its antigen human CD47. This instrument utilizes optical surface plasmon resonance technology to detect the association and dissociation between the molecules coated on the biochip and the molecules to be tested. The main reagent used is Protein A chip (GE Healthcare, 29-1275-57). The experimental procedure is briefly described as follows: the chimeric anti-human CD47 antibodies were diluted in running buffer (1×HBS-EP+10 mM HEPES, 150 mM NaCl, 3 mM EDTA, 0.05% surfactant P20, pH7.4). During the capture-binding phase, the antibodies at a concentration of 2 μg/mL were injected for 60 seconds at a speed of 10 μL/min. During the binding phase, the antigen CD47 was diluted into multiple concentrations with running buffer, injected for 120 seconds at a speed of 30 μL/min respectively. During the dissociation phase, running buffer was injected for 600 seconds at a speed of 10 μL/min. The regeneration condition is 10 mM glycinate solution, pH1.5. Association kinetic constants and dissociation kinetic constants were analyzed and calculated by Biacore X100 evaluation software. The association kinetic constants, dissociation kinetic constants and dissociation equilibrium constants of the chimeric anti-human CD47 antibodies were shown in Table 7.
binder,measurement,value
B1,Kd,0.693 nM
same,koff,0.000823 s⁻¹
same,kon,1.19e+06 M⁻¹ s⁻¹
